Results taken from patent US20260116991A1 (HAINAN SIMCERE ZAIMING PHARMACEUTICAL, published 2026).

T1: polypeptide GC3pep of human GPC3 (Ala524-Lys563) (human)
T1 construct: Residues Ala524-Lys563 of human GPC3 (NCBI NM_004484.3); coated on the ELISA plate; also called membrane proximal polypeptide GC3pep
T1 peptide: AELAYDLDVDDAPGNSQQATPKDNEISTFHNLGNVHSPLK

B1: F1.21.8 human-murine chimeric antibody (antibody, human IgG1, kappa, V domains shown)
VH: EVQLQQSGPELVKPGASVKISCKTSGFLFTGHYMHWVKSSHGNILDWIGYIYPYNAISFYNQKFKGKATLTVDKSSNTAYMELRSLTSEDSAVYYCARGDYGNYVTAYWGQGTLVTVSA
VL: DVLMTQTPLSLPVSLGDQASISCRSSQSIVHSSGNTYLEWYLQKPGQSPKLLIYKVSNRFSGVPDRFSGSGSGTDFTLKISRVEAEDLGVYYCFQGSHLPWTFGGGTKLDIKR
notes: Chimeric
B2: F1.42.8 human-murine chimeric antibody (antibody, human IgG1, kappa, V domains shown)
VH: HVQLQQPGAELVKPGASVKLSCKASGYTFTSYWMHWVRQRPGQGLEWIEMIHPNSGSTNYNEKFKSKATLTVDKSSSTAYMQLSSLTSEDSAVYYCARGNYNSSLYAMDYWGQGTSVTVSS
VL: DIQMTQTTSSLSASLGDRVTISCSASQGISNYLNWYQQKPDGTVKLLIYYASNLHSGVPSRFSGSGSGTAYSLTISNLEPEDIATYYCQQYSILPYTFGGGTKLEIKR
notes: Chimeric
B3: F1.57.21 human-murine chimeric antibody (antibody, human IgG1, kappa, V domains shown)
VH: QVQLQQSGAELARPGASVKLSCKASGYTFTSYGISWVKQITGQGLEWIGEIYPRSESTYYNEKFKGKATLTADKSSSTAYMELRSLTSEDSAVYFCARDYGNIYSFAYWGQGTLVTVSA
VL: DIQMTQSPASLSASVGETVTITCRTSENIYSYLAWYQQKQGKSPQLLVYNAKTLAEGVPSRFSGSGSGTQFSLKINSLQPEDFGSYYCQHHYGTPLTFGAGTKLELKR
notes: Chimeric
B4: F1.73.9 human-murine chimeric antibody (antibody, human IgG1, kappa, V domains shown)
VH: QVQLKQSGAELVRPGASVKLSCKASGYTFTDYYINWVKQRPGQGLEWIARIYPGSGNTYYNEKFKGKATLTAEKSSSTAYMQFSSLTSEDSAVYFCACSTYYTMDYWGQGTSVTVSS
VL: QIVLTQSPAIMSASLGERVTMTCTASSGVSSSYLHWYQQKPGSSPKLWIYTTSNLASGVPARFSGSGSGTSYSLTISSMEAEDAATYYCHQYHRSPYTFGGGTKLEIKR
notes: Chimeric
B5: F1.78.24 human-murine chimeric antibody (antibody, human IgG1, kappa, V domains shown)
VH: QVQLQQSGAELVKPGASVKMSCKASGYTFTTYPIEWMKQNHGKSLEWIGNFHPYNDDTNYNVKFKGKATLTVEKSSSTVYLELSRLTSDDSALYYCARRREYYGSFDVWGTGTTVTVSS
VL: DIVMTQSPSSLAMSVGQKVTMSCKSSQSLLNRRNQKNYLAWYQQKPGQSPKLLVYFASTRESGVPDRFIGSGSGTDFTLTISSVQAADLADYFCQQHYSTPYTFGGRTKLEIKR
notes: Chimeric
B6: F1.83.6 human-murine chimeric antibody (antibody, human IgG1, kappa, V domains shown)
VH: QVQLQQSGPELVKPGASVKISCKASGYAFSSSWMNWVKQRPGKGLEWIGRIYPGDGDTNYNGRFKGKATLTVDKSSSTAYMQLSSLTSEDSAVYFCARGGVFTMALDHWGQGTTLTVSS
VL: DIQMTQSPSSLSASLGGKVTITCKASQDINKYIAWYQHKPGKGPRLLIHYTSTLQPGIPSRFSGSGSGRDYSFSISNLEPEDIATYYCLQYDNLFTFGGGTKLEIKR
notes: Chimeric
B7: F1.92.17 human-murine chimeric antibody (antibody, human IgG1, kappa, V domains shown)
VH: EVQLQQSGPELVKPGASVKMSCKASGYTFTDYNMHWVRQSHGKSLEWIGYINPNNGDTIYNQNFKGKATLTVNKSSSTAYMELRSLTSEDSAVYYCSRTITYYYSMDYWGPGTSVTVSS
VL: QIVLTQSPALMSASPGEKVTMTCSASSSVSYMYWYQQKPRSSPKPWIYLTSNLASGVPARFSGSGSGTSYSLTISSMEAEDAATYYCQQWSSNPLTFGAGTKLELKR
notes: Chimeric
B8: F1.110.24 human-murine chimeric antibody (antibody, human IgG1, kappa, V domains shown)
VH: EVKLVESGGGLVQPGGSLKLSCAASGFTFSDFYMYWVRQTPEKRLEWVAFISNGGGSTYYPDTVKGRFTISRDNVKNTLYLQMSRLKSEDTAMYYCARPDTSWFAYWGQGSLVTVSA
VL: DIQMTQTTSSLSASLGDRVTISCRASQDIDNYLNWYQQKPDGTVKVLISYTSRLHSGVPSRFSGSGSGTDYSLTISNLEQEDIATYFCQQGNTLPWTFGGGTKLEIKR
notes: Chimeric
B9: F1.111.11 human-murine chimeric antibody (antibody, human IgG1, kappa, V domains shown)
VH: EVQLQQSGPELVKPGASVKISCKASGYTFTDYYMNWVKQSHGKSLEWIGDIYPNNGDTTYNQRFKGKATLTVDKSSSTAYMELRSLASEDSAVYYCACPYNNPFGYWGQGTLVTVSA
VL: DVVMTQTPLSLPVSLGDQASISCRSSQSLVHSNGNTYLHWYLQKPGQSPKLLIYKVSNRFSGVPDRFSGSGSGTDFTLKISRVEAEDLGVYFCSQSTHVPWTFGGGTKLEIKR
notes: Chimeric
B10: F1.115.8 human-murine chimeric antibody (antibody, human IgG1, kappa, V domains shown)
VH: EVQLQQSGPELVKPGASVKMSCKASGYTFTEYYMHWVKQSHGKSLEWIGYIYPNNGGNGYNQKFKGKATLTVDKSSSTAYMGLRSLTSEDSAVYYCVRGYYSNWYFDVWGTGTTVTVSS
VL: DVLMTQTPLSLPVSLGDQASISCRSSQSIVHSNGKTYLEWYLQKPGQSPKLLIYKVSNRFSGVPDRFSGSGSGTDFTLKISRVEAEDLGVYYCFQGSHVPFTFGSGTKLEIKR
notes: Chimeric
B11: F1.136.7 human-murine chimeric antibody (antibody, human IgG1, kappa, V domains shown)
VH: EVQLQQSGPVMVKPGPSVKISCQTSGFTFTDYYIHWVKQSHGKSLEWIGLVFPYDGGTNYNQKFKDKATLTLDTSSSTAYMELNSLTSEDSAVYYCARAGGFSYALNYWGQGTSVTVSS
VL: DIQMTQSPSSLSASLGGKVTITCKASQDINNYIAWYQHKPGKGPRLLIHFTSTLQPGIPSRFSGSGSGRDYSFSISNLEPEDIATYYCLQYDNLLLTFGAGTKLELKR
notes: Chimeric
B12: F1.145.22 human-murine chimeric antibody (antibody, human IgG1, kappa, V domains shown)
VH: QVQLQQSGTDLARPGASVKLSCKASGYTFTSFGISWVKQRTGQGLEWIGEIYPRSGSPYYNEKFTGKATLTADKSSSTAYMELRSLTSEDSAVYFCAKDFGSSYVFDYWGQGTALTVSS
VL: DIQMTQSPASLSASVGETVTITCRASENIYSYLTWYQQKQGKSPQLLVYNAKTLAEGVPSRFSGSGSGTQFSLKINSLQPEDFGTYYCQHHYGTPPTFGTGTKLDLKR
notes: Chimeric
B13: F1.3.9 human-murine chimeric antibody (antibody, human IgG1, kappa, V domains shown)
VH: QVQLQQPGTELVKPGASVKLSCKASGYTFTSYWIHWVKQRPGQGLEWIGNINPPNAGTNYNEKFKSKATLTVDKSSSTAYMQLSSLTSEDSAVYYCARGRWLLHDYWGQGTTLTVSS
VL: DIQMTQSPASLSISVGETVTITCRASENIYSNLAWYQQKQGKSPQLLVYGTKNLAEGVPSRFSGSGSGTQYSLKINSLQSEDFGNYYCQHFWGTPYTFGGGTKLEILR
notes: Chimeric
B14: F1.62.9 human-murine chimeric antibody (antibody, human IgG1, kappa, V domains shown)
VH: QVQLQQSDAELVKPGASVKISCKVSGYIFTDHTIHWMKQRPEQGLEWIGYIYPRDGSIKYNENFKGKATLTADKSSSATYMQLNSLTSEDSAVYFCARPIYYDYAYYFDYWGQGTTLTVSS
VL: DVVMTQSPLSLPVSLGDQASISCRSRQSLVHSNGNTYLHWYLQKPGQSPKVLIYKVSNRFSGVPDRFSGSGSGTDFTLKISRVEAEDLGVYFCSQSTHVPYTFGGGTKLEIKR
notes: Chimeric
B15: F4.13.7 human-murine chimeric antibody (antibody, human IgG1, kappa, V domains shown)
VH: QVQLQQPGAELVKPGASVKLSCKASGYTFTNNWVHWVKQRPGQGLEWTGMIHPDSGSTIYNEKFQSKATLTVDKSSSTAYMQLSSLTSEDSAVYYCARGYYDSSSYYAMDYWGQGTSVTVSS
VL: NIQMTQTTSSLSASLGDRVTISCSASQGIFNYLNWYQQKPDGTVKLLIYYTSSLHSGVPSRFSGSGSGTDYSLTISNLEPEDIATYYCQQYSKLPWTFGGGTKLEIKR
notes: Chimeric

Target: T1, polypeptide GC3pep of human GPC3 …
Assay: ELISA, coated peptide
Protocol: The plate was sealed with a plastic film and incubated at 4° C. overnight, washed twice with PBS the next day, and a blocking solution [PBS+2% (w/w) BSA] was added for blocking at room temperature for 2 h. […] After incubation at 37° C. for 2 h, the plate was washed 3 times with PBS. A horseradish peroxidase (HRP)-labeled secondary antibody (purchased from Merck, Cat. No. AP113P) was added for incubation at 37° C. for 1 h, and the plate was washed 5 times with PBS. A TMB substrate was added at 50 μL/well for incubation at room temperature for 10 min, then a stop solution (1.0M HCl) was added at 50 μL/well.

Binder	binding result
B1	no binding (tested: 100 nM)
B2	no binding (tested: 100 nM)
B3	no binding (tested: 100 nM)
B4	no binding (tested: 100 nM)
B5	no binding (tested: 100 nM)
B6	no binding (tested: 100 nM)
B7	no binding (tested: 100 nM)
B8	no binding (tested: 100 nM)
B9	no binding (tested: 100 nM)
B10	no binding (tested: 100 nM)
B11	no binding (tested: 100 nM)
B12	no binding (tested: 100 nM)
B13	no binding (tested: 100 nM)
B14	no binding (tested: 100 nM)
B15	no binding (tested: 100 nM)
